Measurements reported in US11814447B2, “Peptide ligands for binding to EphA2” (BICYCLERD LIMITED, priority 2018, dated 2023).
Starred links: 1 amine or outer side, 2 acyl side, 3 side chain; linkers in the order of their positions; H or OH if unused. Positions of bridges follow the written chain, without caps; N, C: chain ends. Non-standard residues stand in square brackets, D forms with d. No end group written: not given here. ThiAz = 3-(1,2,4-triazol-1-yl)-alanine, O=C([C@H](Cn1cncn1)N[*:1])[*:2]; TATA = O=C(CC[*:1])N1CN(C(=O)CC[*:2])CN(C(=O)CC[*:3])C1; Ala(2-furyl) = N[C@@H](Cc1ccco1)C(=O)O; 1Nal = N[C@@H](Cc1cccc2ccccc12)C(=O)O; TBMB = c1c(C[*:1])cc(C[*:3])cc1C[*:2]; hArg = N=C(N)NCCCC[C@H](N)C(=O)O; 2Thi = N[C@@H](Cc1cccs1)C(=O)O; Tle = CC(C)(C)[C@H](N)C(=O)O; Pip = O=C(O)[C@@H]1CCCCN1; Aze = O=C(O)[C@@H]1CCN1; Aib = CC(C)(N)C(=O)O; azaGly = NNC(=O)O; βAla = NCCC(=O)O; Sar = CNCC(=O)O

How the values were obtained:
[1] = molecular target: T1, Human EphA2 (Ecto) (Human, UniProt P29317 24-537); test: FP competition, tracer Compound 18
T1 construct: extracellular domain
Method: (§1) Peptides without a fluorescent tag were tested in competition with a peptide with a fluorescent tag and a known Kd (Table 2). Peptides were diluted to an appropriate concentration in assay buffer as described in the direct binding assay with a maximum of 5% DMSO, then serially diluted 1 in 2. […] Measurements were conducted as for the direct binding assay, however the gain was determined prior to the first measurement. Data analysis was in Systat Sigmaplot version 12.0 where the mP values were fit to a user defined cubic equation to generate a Ki value: […]
T1 sequence (P29317 24-537): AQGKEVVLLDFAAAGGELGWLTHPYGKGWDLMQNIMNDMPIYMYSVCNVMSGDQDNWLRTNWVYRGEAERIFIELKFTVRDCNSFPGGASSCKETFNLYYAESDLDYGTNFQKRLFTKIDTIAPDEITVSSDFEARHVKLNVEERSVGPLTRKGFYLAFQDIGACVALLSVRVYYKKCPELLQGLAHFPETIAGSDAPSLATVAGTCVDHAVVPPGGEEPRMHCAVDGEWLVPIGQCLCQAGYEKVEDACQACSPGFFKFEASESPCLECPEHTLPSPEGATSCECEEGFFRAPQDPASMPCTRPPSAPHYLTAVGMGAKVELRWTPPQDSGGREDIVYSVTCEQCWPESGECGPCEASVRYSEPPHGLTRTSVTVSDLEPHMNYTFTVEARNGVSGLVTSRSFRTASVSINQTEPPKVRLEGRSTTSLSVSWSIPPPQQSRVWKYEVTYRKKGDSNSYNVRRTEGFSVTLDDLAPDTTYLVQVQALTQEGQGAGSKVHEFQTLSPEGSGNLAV

[2] = molecular target: T2, Human EphA2 (Ecto) (Human, UniProt P29317 24-537); test: FP competition; tracer Reference Compound C
T2 construct: extracellular domain; in-house)
Method: as §1
T2 sequence (P29317 24-537): as above

| Binder | Ki [1] [nM] | Ki [2] [nM] |
| --- | --- | --- |
| Ac-[Sar][Sar]A[dH]DVPCPWGPAWCPVNRPGC (linker 8-15-22 via TBMB; also: A13 (ΨAla): reduced amide backbone bond) [Bicycle Compound 228] | 210 | – |
| [Sar][Sar]A[dH]DVPCPWGPFWCPVNRPGC (linker 8-15-22 via TBMB) [Bicycle Compound 197] | 1.2 | – |
| [Sar][Sar]AHD[Aib]PCPWGPFWCPVNRPGC (linker 8-15-22 via TBMB) [Bicycle Compound 216] | 2.77 | – |
| [Sar][Sar]AHDV[Aib]CPWGPFWCPVNRPGC (linker 8-15-22 via TBMB) [Bicycle Compound 220] | 0.83 | – |
| Ac-[Sar][Sar]A[dH]D[Tle]PCPWGPFWCPVNRPGC (linker 8-15-22 via TBMB) [Bicycle Compound 204] | 2.15 | – |
| Ac-[Sar][Sar][dA]HDVPCPWGPFWCPVNRPGC (linker 8-15-22 via TBMB) [Bicycle Compound 194] | 1.2 | – |
| Ac-[Sar][Sar]A[dH]DVPCP[1Nal]GPFWCP[Tle]N[hArg]PGC (linker 8-15-22 via TBMB) [Bicycle Compound 230] | 1.8 | – |
| [βAla][Sar][Sar][Sar][Sar][Sar][Sar][Sar][Sar][Sar][Sar]HDVPCPWGPFWCPVNRPGC (linker 16-23-30 via TBMB) [Bicycle Compound 223] | 1.29 | – |
| Ac-[Sar][Sar]AH[dD]V[Sar]CPWGPFWCPVNRPGC (linker 8-15-22 via TBMB) [Bicycle Compound 212] | 4.95 | – |
| Ac-[Sar][Sar]AH[dD]VPCPWGPFWCPVNRPGC (linker 8-15-22 via TBMB) [Bicycle Compound 210] | 1.1 | – |
| [Sar][Sar]A[Ala(2-furyl)]DVPCPWGPFWCPVNRPGC (linker 8-15-22 via TBMB) [Bicycle Compound 203] | 0.49 | – |
| Ac-[Sar][Sar]A[dH]DVPCPWG[Aib]FWCP[Tle]NR[Aib]GC (linker 8-15-22 via TBMB) [Bicycle Compound 233] | 4.8 | – |
| [Sar][Sar]AHD[Tle]PCPWGPFWCPVNRPGC (linker 8-15-22 via TBMB) [Bicycle Compound 217] | 0.49 | – |
| Ac-[Sar][Sar]AH[dD]V[Aib]CPWGPFWCPVNRPGC (linker 8-15-22 via TBMB) [Bicycle Compound 213] | 1.9 | – |
| Ac-[Sar][Sar]A[dH]DVPCPWGPFWCPVNRPGC (linker 8-15-22 via TBMB) [Bicycle Compound 196] | 0.95 | – |
| [Sar][Sar]AHDV[Aze]CPWGPFWCPVNRPGC (linker 8-15-22 via TBMB) [Bicycle Compound 221] | 3.1 | – |
| Ac-[Sar][Sar]AH[dD][Tle]PCPWGPFWCPVNRPGC (linker 8-15-22 via TBMB) [Bicycle Compound 211] | 3.1 | – |
| [Sar][Sar]A[2Thi]DVPCPWGPFWCPVNRPGC (linker 8-15-22 via TBMB) [Bicycle Compound 201] | 0.6 | – |
| [βAla][Sar][Sar][Sar][Sar][Sar][Sar][Sar][Sar][Sar][Sar]H[dD]VPCPWGPFWCPVNRPGC (linker 16-23-30 via TBMB) [Bicycle Compound 226] | 0.84 | – |
| [Sar][Sar]AH[dD]VPCPWGPFWCPVNRPGC (linker 8-15-22 via TBMB) [Bicycle Compound 209] | 1.25 | – |
| [Sar][Sar]A[ThiAz]DVPCPWGPFWCPVNRPGC (linker 8-15-22 via TBMB) [Bicycle Compound 202] | 0.7 | – |
| [Sar][Sar]AHDV[Pip]CPWGPFWCPVNRPGC (linker 8-15-22 via TBMB) [Bicycle Compound 222] | 3.4 | – |
| Ac-[Sar][Sar]AH[dD]VPCP[1Nal]GPFWCP[Tle]N[hArg]PGC (linker 8-15-22 via TBMB) [Bicycle Compound 227] | 0.75 | – |

Results, then the binder that gave them:

| Ki [1] [nM] | Ki [2] [nM] | Binder |
| --- | --- | --- |
| 5.78 | – | Ac-[Sar][Sar]A[dD]DVTCPWGPFWCPVNRPGC (linker 8-15-22 via TBMB) [Bicycle Compound 281] |
| 0.66 | – | Ac-[Sar][Sar]H[dD]VPCPW[azaGly]PFWCPVNRPGC (linker 7-14-21 via TBMB) [Bicycle Compound 267] |
| – | 57 | ESRCSPDARCAYMNVCA (linker 4-10-16 via TATA) [Bicycle Compound Number 20 (TATA scaffold), ESRCSPDARCAYMNVCA] |
| 0.28 | – | Ac-[Sar][Sar]A[dD]DVTCP[1Nal]GPF[1Nal]CPVNRPGC (linker 8-15-22 via TBMB) [Bicycle Compound 283] |
| – | 94.8 | SRPCVIDSRCAYMNVCA (linker 4-10-16 via TATA) [Bicycle Compound Number 19 (TATA scaffold), SRPCVIDSRCAYMNVCA] |
| – | 70 | ACVPDRRCAYMNVCA (linker 2-8-14 via TATA) [Bicycle Compound Number 16 (TATA scaffold), ACVPDRRCAYMNVCA] |
| – | 278 | ACMNDWWCAMGWKCA (linker 2-8-14 via TATA) [Bicycle Compound Number 15 (TATA scaffold), ACMNDWWCAMGWKCA] |
| 0.87 | – | Ac-[Sar][Sar]A[dD]DVTCP[1Nal]GPFWCPVNRPGC (linker 8-15-22 via TBMB) [Bicycle Compound 282] |
| – | 62.1 | HSGCRPDPRCAYMNVCA (linker 4-10-16 via TATA) [Bicycle Compound Number 21 (TATA scaffold), HSGCRPDPRCAYMNVCA] |
| – | 70.8 | DLRCGGDPRCAYMNVCA (linker 4-10-16 via TATA) [Bicycle Compound Number 18 (TATA scaffold), DLRCGGDPRCAYMNVCA] |
| 3.8 | – | Ac-[Sar][Sar]A[dD]DVTCP[1Nal]G[Aib]FWCP[Tle]N[hArg]PGC (linker 8-15-22 via TBMB) [Bicycle Compound 284] |
| – | 85 | [βAla][Sar][Sar][Sar][Sar][Sar][Sar][Sar][Sar][Sar][Sar]ACVPDRRCAYMNVC (linker 13-19-25 via TATA) [Bicycle Compound Number 17 (TATA scaffold), (β-Ala)-Sar10-ACVPDRRCAYMNVC] |
